Literature values, collected in paper PMC11431639.

Legend:
INF2 DAD (Homo sapiens) = INF2 DAD (Homo sapiens) (UniProt Q27J81)
mDia1 DAD (Mus musculus) = mDia1 DAD (Mus musculus) (UniProt O08808)
Chain of mDia1 DAD (Mus musculus) (O08808 1174-1208): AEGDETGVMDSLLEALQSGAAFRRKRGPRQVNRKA

Chain of INF2 DAD (Homo sapiens) (Q27J81 971-1000): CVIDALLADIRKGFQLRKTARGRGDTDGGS
Chain of mDia1 DID (O08808 129-369): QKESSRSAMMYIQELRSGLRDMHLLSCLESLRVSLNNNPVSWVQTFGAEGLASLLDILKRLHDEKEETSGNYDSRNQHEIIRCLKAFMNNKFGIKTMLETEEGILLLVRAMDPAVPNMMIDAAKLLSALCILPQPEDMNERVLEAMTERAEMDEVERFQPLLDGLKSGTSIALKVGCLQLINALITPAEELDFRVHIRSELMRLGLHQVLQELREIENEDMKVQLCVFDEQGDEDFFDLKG
Chain of INF2 DID (Q27J81 32-261): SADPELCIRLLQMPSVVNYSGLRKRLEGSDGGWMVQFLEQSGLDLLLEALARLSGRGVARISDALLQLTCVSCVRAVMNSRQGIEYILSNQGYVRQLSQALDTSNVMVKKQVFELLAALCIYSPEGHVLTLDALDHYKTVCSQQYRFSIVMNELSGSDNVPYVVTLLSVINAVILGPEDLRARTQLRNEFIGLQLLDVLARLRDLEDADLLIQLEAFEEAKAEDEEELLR

Kd (INF2 DAD (Homo sapiens)) [nM] | Kd (mDia1 DAD (Mus musculus)) [nM] | Substance
1100 |  | INF2 DID (from UniProt Q27J81)
 | 280 | mDia1 DID (from UniProt O08808)
